# According to article PMC9721421, “DMSO-tolerant ornithine decarboxylase (ODC) tandem assay optimised for high-throughput screening” (Journal of Enzyme Inhibition and Medicinal Chemistry, 2022):
# B1: C-terminal Twin-Strep-tagged recombinant human ornithine decarboxylase (ODC) (enzyme, UniProt P11926 1-461, looked up)
# chain: MNNFGNEEFDCHFLDEGFTAKDILDQKINEVSSSDDKDAFYVADLGDILKKHLRWLKALPRVTPFYAVKCNDSKAIVKTLAATGTGFDCASKTEIQLVQSLGVPPERIIYANPCKQVSQIKYAANNGVQMMTFDSEVELMKVARAHPKAKLVLRIATDDSKAVCRLSVKFGATLRTSRLLLERAKELNIDVVGVSFHVGSGCTDPETFVQAISDARCVFDMGAEVGFSMYLLDIGGGFPGSEDVKLKFEEITGVINPALDKYFPSDSGVRIIAEPGRYYVASAFTLAVNIIAKKIVLKEQTGSDDEDESSEQTFMYYVNDGVYGSFNCILYDHAHVKPLLQKRPKPDEKYYSSSIWGPTCDGLDRIVERCDLPEMHVGDWMLFENMGAYTVAAASTFNGFQRPTIYYVMSGPAWQLMQQFQNPDFPPEVEEQDASTLPVSCAWESGMKRHRAACASASINV
# notes: Cloning sites may add a few linker residues between ODC and the 3C site; also called human ODC; ODC1; source: Expi293F cells, transiently transfected, purified (Strep-Tactin chromatography, size-exclusion chromatography); not shown: Avi tag (preceded by an HRV 3C protease site), C-terminal, kept; Twin-Strep, C-terminal, kept
# Molecular target: the molecule itself
# Test: SEC; Superose 6 Increase 10/300 GL, 4 °C, 0.5 mL/min, running buffer 50 mM potassium pyrophosphate, 500 mM NaCl, 5% glycerol, 0.1% Tween 20, pH 7.5; elution compared with molecular weight standards; fractions checked by ODC tandem assay, Coomassie staining and western blot
protein,measurement,value
B1,stoichiometry N,2
